Where “and” joins values, the source holds several entries; their conditions need not be identical. Equal values may be shown once.
Biological target: ERGU-1::GFP (C. elegans ERGU-1, Y87G2A.13, with GFP fused to its C-terminus) (C. elegans)
Assay: SDS-PAGE western blot

stoichiometry N: 2 and 4
Substance: ERGU-1::GFP (C. elegans ERGU-1, Y87G2A.13, with GFP fused to its C-terminus) (natural protein)
